biological target: FGFR3 (UniProt P22607); assay: phosphorylation enrichment, bacterial display (enrichment ratio); higher = better substrate or ligand; peptides without Tyr show the background
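Note: 11-residue human phosphosite peptides and single-mutation variants displayed on the E. coli surface, counted by deep sequencing, each peptide's frequency after selection divided by its frequency in the unselected input library; frequency after pTyr selection over input frequency; kinase dosed for 20-30% of maximal phosphorylation in three min.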

Chain of FGFR3 (P22607 whole entry, looked up): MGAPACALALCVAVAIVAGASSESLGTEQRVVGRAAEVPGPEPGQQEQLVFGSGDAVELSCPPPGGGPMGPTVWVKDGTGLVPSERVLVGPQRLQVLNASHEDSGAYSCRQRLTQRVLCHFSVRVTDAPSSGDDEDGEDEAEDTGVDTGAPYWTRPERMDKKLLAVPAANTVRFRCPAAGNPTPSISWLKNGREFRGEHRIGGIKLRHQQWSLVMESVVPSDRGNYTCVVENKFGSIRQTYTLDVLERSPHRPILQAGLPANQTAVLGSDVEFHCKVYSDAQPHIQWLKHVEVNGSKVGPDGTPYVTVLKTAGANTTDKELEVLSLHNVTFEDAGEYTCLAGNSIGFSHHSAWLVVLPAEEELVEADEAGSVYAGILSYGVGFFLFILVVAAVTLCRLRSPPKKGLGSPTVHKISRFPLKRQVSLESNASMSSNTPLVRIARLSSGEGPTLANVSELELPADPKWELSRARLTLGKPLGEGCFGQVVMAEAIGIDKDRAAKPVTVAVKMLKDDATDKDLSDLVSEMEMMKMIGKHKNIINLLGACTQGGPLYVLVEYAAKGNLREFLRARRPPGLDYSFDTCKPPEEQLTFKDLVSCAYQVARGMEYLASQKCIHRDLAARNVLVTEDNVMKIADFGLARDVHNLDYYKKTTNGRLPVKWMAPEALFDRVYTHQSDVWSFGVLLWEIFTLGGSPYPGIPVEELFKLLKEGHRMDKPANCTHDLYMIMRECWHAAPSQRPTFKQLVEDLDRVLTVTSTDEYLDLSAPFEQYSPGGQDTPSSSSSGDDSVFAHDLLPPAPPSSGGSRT

First: ILDEAYVMASM [EGFR_Y764_V769M]
Second: VFSATYHPDHW [EFCAB12_Y544_P541S_YF]
The phosphorylation enrichment of the first is higher: 0.62 for the first, 0.614 for the second.

Compared with PTYKHYANSTQ [SLC12A3_Y70_E68K], WKGSWYSMRKM [FGB_Y475] is higher in phosphorylation enrichment: 0.466 for the first, 0.716 for the second.

Going from VIESSYQVAKA [CPT1B_Y534] to FLRKEYGGVNV [CBR3_Y81_L84V], the phosphorylation enrichment rises from 0.404 to 0.495.

Compared with DGTGRYLCNAC [GATA5_Y208_H207R], NTADFYDLFGG [PTPN11_Y63_G60A_YF] is higher in phosphorylation enrichment: 0.522 for the first, 0.608 for the second.

Going from KNCFKYYMSDD [ATRX_Y203] to HNLNFYKKTTN [FGFR3_Y648_D646N_YF], the phosphorylation enrichment rises from 1.01 to 2.99.

First: PTFEHYANSTQ [SLC12A3_Y70_YF]
Second: LHSEAYLKFIE [PBRM1_Y1610_YF]
The phosphorylation enrichment of the first is lower: 0.988 for the first, 1.21 for the second.

First: EGWQVYRLGTR [MISP_Y95_A99T]
Second: PLKALYLQQRP [ATM_Y2969]
The phosphorylation enrichment of the first is lower: 0.645 for the first, 0.743 for the second.

First: DKNSSYFADWL [TUBB8_Y340]
Second: HFEDGYPGGSD [CTNND1_Y221_YF]
The phosphorylation enrichment of the first is higher: 1.38 for the first, 0.806 for the second.

Compared with SSNPEYLSASD [INSR_Y999], EEAAGCAQESQ [CAMKV_Y491_Y491C] is higher in phosphorylation enrichment: 0.695 for the first, 0.833 for the second.

Going from YTNELYMMMRD [FGFR1_Y730_C725Y] to LAEMNYVHRDL [EPHB1_Y740], the phosphorylation enrichment falls from 2.27 to 0.503.

Compared with SVVVTYEPPEV [TP53_Y220_P219T], SENAFYLSPHI [COL6A3_Y2827_D2831H] is lower in phosphorylation enrichment: 0.708 for the first, 0.693 for the second.

Compared with PYRSIYFSSPK [MPG_Y75], TEALYYTDDTA [ADPRS_Y75] is higher in phosphorylation enrichment: 0.856 for the first, 4.22 for the second.

First: SKDSAYVTWEP
Second: GVLDIYGFEIL [MYO1A_Y382]
The phosphorylation enrichment of the first is higher: 1.06 for the first, 0.787 for the second.

Going from AGADGYGFLAP [FOXL2_Y186_YF] to VDHFGYTKDDK [APOB_Y740], the phosphorylation enrichment falls from 0.694 to 0.498.

Compared with PRAEWYRDDLL [MYOM2_Y317_V321L], AVVEPYNSLLT [TUBA1A_Y185_I188L] is lower in phosphorylation enrichment: 0.626 for the first, 0.54 for the second.

First: FGCTFYNQAIM [MCCC2_Y196_R193C]
Second: IITDYYVDMKF [MPP4_Y567_V562I]
The phosphorylation enrichment of the first is lower: 1.04 for the first, 5.13 for the second.

In the case of ATRDVYNPFET [SCAMP3_Y41_L38R], the phosphorylation enrichment is reported as 0.598.

test system: Fer (mouse); assay: as above

Going from ILDEAYVMASM [EGFR_Y764_V769M] to VFSATYHPDHW [EFCAB12_Y544_P541S_YF], the phosphorylation enrichment falls from 0.557 to 0.55.

First: PTYKHYANSTQ [SLC12A3_Y70_E68K]
Second: WKGSWYSMRKM [FGB_Y475]
The phosphorylation enrichment of the first is lower: 0.448 for the first, 0.473 for the second.

Going from VIESSYQVAKA [CPT1B_Y534] to FLRKEYGGVNV [CBR3_Y81_L84V], the phosphorylation enrichment rises from 0.448 to 0.475.

First: DGTGRYLCNAC [GATA5_Y208_H207R]
Second: NTADFYDLFGG [PTPN11_Y63_G60A_YF]
The phosphorylation enrichment of the first is lower: 0.362 for the first, 1.6 for the second.

Compared with KNCFKYYMSDD [ATRX_Y203], HNLNFYKKTTN [FGFR3_Y648_D646N_YF] is higher in phosphorylation enrichment: 0.624 for the first, 0.806 for the second.

Going from PTFEHYANSTQ [SLC12A3_Y70_YF] to LHSEAYLKFIE [PBRM1_Y1610_YF], the phosphorylation enrichment falls from 1.14 to 1.1.

Compared with EGWQVYRLGTR [MISP_Y95_A99T], PLKALYLQQRP [ATM_Y2969] is higher in phosphorylation enrichment: 0.45 for the first, 0.764 for the second.

Going from DKNSSYFADWL [TUBB8_Y340] to HFEDGYPGGSD [CTNND1_Y221_YF], the phosphorylation enrichment falls from 0.564 to 0.5.

Going from SSNPEYLSASD [INSR_Y999] to EEAAGCAQESQ [CAMKV_Y491_Y491C], the phosphorylation enrichment rises from 0.491 to 0.657.

First: YTNELYMMMRD [FGFR1_Y730_C725Y]
Second: LAEMNYVHRDL [EPHB1_Y740]
The phosphorylation enrichment of the first is higher: 0.982 for the first, 0.32 for the second.

First: SVVVTYEPPEV [TP53_Y220_P219T]
Second: SENAFYLSPHI [COL6A3_Y2827_D2831H]
The phosphorylation enrichment of the first is lower: 0.752 for the first, 0.775 for the second.

Going from PYRSIYFSSPK [MPG_Y75] to TEALYYTDDTA [ADPRS_Y75], the phosphorylation enrichment rises from 0.72 to 1.97.

Compared with SKDSAYVTWEP, GVLDIYGFEIL [MYO1A_Y382] is lower in phosphorylation enrichment: 1.65 for the first, 0.694 for the second.

Going from AGADGYGFLAP [FOXL2_Y186_YF] to VDHFGYTKDDK [APOB_Y740], the phosphorylation enrichment falls from 0.611 to 0.408.

Going from PRAEWYRDDLL [MYOM2_Y317_V321L] to AVVEPYNSLLT [TUBA1A_Y185_I188L], the phosphorylation enrichment falls from 0.502 to 0.394.

Compared with FGCTFYNQAIM [MCCC2_Y196_R193C], IITDYYVDMKF [MPP4_Y567_V562I] is higher in phosphorylation enrichment: 0.647 for the first, 1.38 for the second.

ATRDVYNPFET [SCAMP3_Y41_L38R] gave a phosphorylation enrichment of 0.457.

biological target: Fes (UniProt P07332); assay: as above
Sequence (P07332 whole entry, looked up): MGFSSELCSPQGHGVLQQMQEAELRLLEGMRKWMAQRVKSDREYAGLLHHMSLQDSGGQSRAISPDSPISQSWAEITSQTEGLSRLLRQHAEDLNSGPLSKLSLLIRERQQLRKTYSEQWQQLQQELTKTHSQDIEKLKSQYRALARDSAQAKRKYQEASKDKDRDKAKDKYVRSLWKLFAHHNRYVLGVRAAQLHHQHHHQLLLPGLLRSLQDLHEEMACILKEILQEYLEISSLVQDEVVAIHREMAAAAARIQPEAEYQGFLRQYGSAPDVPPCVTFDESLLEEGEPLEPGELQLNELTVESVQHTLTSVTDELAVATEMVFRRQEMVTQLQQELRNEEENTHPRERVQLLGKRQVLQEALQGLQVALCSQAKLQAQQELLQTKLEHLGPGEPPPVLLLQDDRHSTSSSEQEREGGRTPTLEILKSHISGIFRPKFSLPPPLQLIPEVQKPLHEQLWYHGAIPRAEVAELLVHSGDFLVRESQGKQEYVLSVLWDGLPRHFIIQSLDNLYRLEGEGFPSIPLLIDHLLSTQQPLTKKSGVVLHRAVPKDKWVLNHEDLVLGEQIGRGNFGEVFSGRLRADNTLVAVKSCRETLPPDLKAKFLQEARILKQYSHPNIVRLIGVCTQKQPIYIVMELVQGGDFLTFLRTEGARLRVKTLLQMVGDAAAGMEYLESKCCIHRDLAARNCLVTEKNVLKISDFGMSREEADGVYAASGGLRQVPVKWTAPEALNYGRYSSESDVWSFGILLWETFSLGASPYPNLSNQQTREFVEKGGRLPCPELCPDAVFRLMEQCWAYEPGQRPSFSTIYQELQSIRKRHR

Going from ILDEAYVMASM [EGFR_Y764_V769M] to VFSATYHPDHW [EFCAB12_Y544_P541S_YF], the phosphorylation enrichment falls from 1.19 to 0.785.

Going from PTYKHYANSTQ [SLC12A3_Y70_E68K] to WKGSWYSMRKM [FGB_Y475], the phosphorylation enrichment rises from 0.592 to 1.11.

Compared with VIESSYQVAKA [CPT1B_Y534], FLRKEYGGVNV [CBR3_Y81_L84V] is higher in phosphorylation enrichment: 0.815 for the first, 0.916 for the second.

Compared with DGTGRYLCNAC [GATA5_Y208_H207R], NTADFYDLFGG [PTPN11_Y63_G60A_YF] is higher in phosphorylation enrichment: 0.573 for the first, 1.12 for the second.

Compared with KNCFKYYMSDD [ATRX_Y203], HNLNFYKKTTN [FGFR3_Y648_D646N_YF] is lower in phosphorylation enrichment: 1.37 for the first, 0.92 for the second.

First: PTFEHYANSTQ [SLC12A3_Y70_YF]
Second: LHSEAYLKFIE [PBRM1_Y1610_YF]
The phosphorylation enrichment of the first is lower: 1.07 for the first, 1.51 for the second.

Going from EGWQVYRLGTR [MISP_Y95_A99T] to PLKALYLQQRP [ATM_Y2969], the phosphorylation enrichment rises from 0.75 to 1.49.

First: DKNSSYFADWL [TUBB8_Y340]
Second: HFEDGYPGGSD [CTNND1_Y221_YF]
The phosphorylation enrichment of the first is lower: 1.09 for the first, 1.45 for the second.

Compared with SSNPEYLSASD [INSR_Y999], EEAAGCAQESQ [CAMKV_Y491_Y491C] is higher in phosphorylation enrichment: 1 for the first, 1.23 for the second.

Compared with YTNELYMMMRD [FGFR1_Y730_C725Y], LAEMNYVHRDL [EPHB1_Y740] is lower in phosphorylation enrichment: 1.35 for the first, 0.709 for the second.

Going from SVVVTYEPPEV [TP53_Y220_P219T] to SENAFYLSPHI [COL6A3_Y2827_D2831H], the phosphorylation enrichment falls from 1.32 to 0.887.

First: PYRSIYFSSPK [MPG_Y75]
Second: TEALYYTDDTA [ADPRS_Y75]
The phosphorylation enrichment of the first is lower: 0.648 for the first, 2.09 for the second.

First: SKDSAYVTWEP
Second: GVLDIYGFEIL [MYO1A_Y382]
The phosphorylation enrichment of the first is lower: 0.971 for the first, 1.14 for the second.

Going from AGADGYGFLAP [FOXL2_Y186_YF] to VDHFGYTKDDK [APOB_Y740], the phosphorylation enrichment rises from 0.737 to 0.764.

Compared with PRAEWYRDDLL [MYOM2_Y317_V321L], AVVEPYNSLLT [TUBA1A_Y185_I188L] is lower in phosphorylation enrichment: 1.4 for the first, 0.891 for the second.

Going from FGCTFYNQAIM [MCCC2_Y196_R193C] to IITDYYVDMKF [MPP4_Y567_V562I], the phosphorylation enrichment falls from 1.54 to 1.46.

Work on ATRDVYNPFET [SCAMP3_Y41_L38R] yielded a phosphorylation enrichment of 1.03.

biological target: Fyn (UniProt P06241); assay: as above
Sequence (P06241 whole entry, looked up): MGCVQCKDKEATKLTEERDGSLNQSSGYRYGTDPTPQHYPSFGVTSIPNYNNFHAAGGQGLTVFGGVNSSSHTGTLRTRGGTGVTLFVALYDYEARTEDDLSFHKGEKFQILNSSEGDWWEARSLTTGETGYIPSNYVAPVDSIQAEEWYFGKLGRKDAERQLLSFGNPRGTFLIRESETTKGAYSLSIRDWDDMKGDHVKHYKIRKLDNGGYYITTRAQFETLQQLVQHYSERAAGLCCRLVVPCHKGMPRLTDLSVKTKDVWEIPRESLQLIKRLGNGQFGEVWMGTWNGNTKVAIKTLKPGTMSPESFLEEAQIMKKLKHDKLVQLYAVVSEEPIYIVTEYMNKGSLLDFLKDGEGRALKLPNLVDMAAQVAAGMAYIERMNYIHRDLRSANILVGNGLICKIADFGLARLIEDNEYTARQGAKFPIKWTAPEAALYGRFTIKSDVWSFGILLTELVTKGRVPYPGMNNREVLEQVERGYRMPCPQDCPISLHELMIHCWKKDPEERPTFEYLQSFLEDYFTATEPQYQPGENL

First: ILDEAYVMASM [EGFR_Y764_V769M]
Second: VFSATYHPDHW [EFCAB12_Y544_P541S_YF]
The phosphorylation enrichment of the first is higher: 0.539 for the first, 0.472 for the second.

Going from PTYKHYANSTQ [SLC12A3_Y70_E68K] to WKGSWYSMRKM [FGB_Y475], the phosphorylation enrichment falls from 0.542 to 0.49.

Going from VIESSYQVAKA [CPT1B_Y534] to FLRKEYGGVNV [CBR3_Y81_L84V], the phosphorylation enrichment falls from 0.457 to 0.452.

Going from DGTGRYLCNAC [GATA5_Y208_H207R] to NTADFYDLFGG [PTPN11_Y63_G60A_YF], the phosphorylation enrichment rises from 0.424 to 4.53.

First: KNCFKYYMSDD [ATRX_Y203]
Second: HNLNFYKKTTN [FGFR3_Y648_D646N_YF]
The phosphorylation enrichment of the first is lower: 0.54 for the first, 0.975 for the second.

Compared with PTFEHYANSTQ [SLC12A3_Y70_YF], LHSEAYLKFIE [PBRM1_Y1610_YF] is higher in phosphorylation enrichment: 0.852 for the first, 0.856 for the second.

Compared with EGWQVYRLGTR [MISP_Y95_A99T], PLKALYLQQRP [ATM_Y2969] is lower in phosphorylation enrichment: 1.78 for the first, 0.822 for the second.

Going from DKNSSYFADWL [TUBB8_Y340] to HFEDGYPGGSD [CTNND1_Y221_YF], the phosphorylation enrichment rises from 0.584 to 0.74.

First: SSNPEYLSASD [INSR_Y999]
Second: EEAAGCAQESQ [CAMKV_Y491_Y491C]
The phosphorylation enrichment of the first is higher: 0.531 for the first, 0.491 for the second.

Going from YTNELYMMMRD [FGFR1_Y730_C725Y] to LAEMNYVHRDL [EPHB1_Y740], the phosphorylation enrichment falls from 1.4 to 0.529.

First: SVVVTYEPPEV [TP53_Y220_P219T]
Second: SENAFYLSPHI [COL6A3_Y2827_D2831H]
The phosphorylation enrichment of the first is higher: 0.516 for the first, 0.487 for the second.

First: PYRSIYFSSPK [MPG_Y75]
Second: TEALYYTDDTA [ADPRS_Y75]
The phosphorylation enrichment of the first is lower: 1.03 for the first, 2.63 for the second.

First: SKDSAYVTWEP
Second: GVLDIYGFEIL [MYO1A_Y382]
The phosphorylation enrichment of the first is lower: 1.5 for the first, 2.92 for the second.

First: AGADGYGFLAP [FOXL2_Y186_YF]
Second: VDHFGYTKDDK [APOB_Y740]
The phosphorylation enrichment of the first is higher: 0.517 for the first, 0.369 for the second.

First: PRAEWYRDDLL [MYOM2_Y317_V321L]
Second: AVVEPYNSLLT [TUBA1A_Y185_I188L]
The phosphorylation enrichment of the first is higher: 0.612 for the first, 0.426 for the second.

Going from FGCTFYNQAIM [MCCC2_Y196_R193C] to IITDYYVDMKF [MPP4_Y567_V562I], the phosphorylation enrichment rises from 0.472 to 1.01.

For ATRDVYNPFET [SCAMP3_Y41_L38R], the phosphorylation enrichment was 1.08.
